According to doi:10.1101/2020.09.09.290171 (bioRxiv, 2020):

Molecular target: T1, recombinant NRPD1 fused at its C-terminus to a FLAG epitope tag (Arabidopsis thaliana, UniProt Q9LQ02 1-1453)
T1 sequence: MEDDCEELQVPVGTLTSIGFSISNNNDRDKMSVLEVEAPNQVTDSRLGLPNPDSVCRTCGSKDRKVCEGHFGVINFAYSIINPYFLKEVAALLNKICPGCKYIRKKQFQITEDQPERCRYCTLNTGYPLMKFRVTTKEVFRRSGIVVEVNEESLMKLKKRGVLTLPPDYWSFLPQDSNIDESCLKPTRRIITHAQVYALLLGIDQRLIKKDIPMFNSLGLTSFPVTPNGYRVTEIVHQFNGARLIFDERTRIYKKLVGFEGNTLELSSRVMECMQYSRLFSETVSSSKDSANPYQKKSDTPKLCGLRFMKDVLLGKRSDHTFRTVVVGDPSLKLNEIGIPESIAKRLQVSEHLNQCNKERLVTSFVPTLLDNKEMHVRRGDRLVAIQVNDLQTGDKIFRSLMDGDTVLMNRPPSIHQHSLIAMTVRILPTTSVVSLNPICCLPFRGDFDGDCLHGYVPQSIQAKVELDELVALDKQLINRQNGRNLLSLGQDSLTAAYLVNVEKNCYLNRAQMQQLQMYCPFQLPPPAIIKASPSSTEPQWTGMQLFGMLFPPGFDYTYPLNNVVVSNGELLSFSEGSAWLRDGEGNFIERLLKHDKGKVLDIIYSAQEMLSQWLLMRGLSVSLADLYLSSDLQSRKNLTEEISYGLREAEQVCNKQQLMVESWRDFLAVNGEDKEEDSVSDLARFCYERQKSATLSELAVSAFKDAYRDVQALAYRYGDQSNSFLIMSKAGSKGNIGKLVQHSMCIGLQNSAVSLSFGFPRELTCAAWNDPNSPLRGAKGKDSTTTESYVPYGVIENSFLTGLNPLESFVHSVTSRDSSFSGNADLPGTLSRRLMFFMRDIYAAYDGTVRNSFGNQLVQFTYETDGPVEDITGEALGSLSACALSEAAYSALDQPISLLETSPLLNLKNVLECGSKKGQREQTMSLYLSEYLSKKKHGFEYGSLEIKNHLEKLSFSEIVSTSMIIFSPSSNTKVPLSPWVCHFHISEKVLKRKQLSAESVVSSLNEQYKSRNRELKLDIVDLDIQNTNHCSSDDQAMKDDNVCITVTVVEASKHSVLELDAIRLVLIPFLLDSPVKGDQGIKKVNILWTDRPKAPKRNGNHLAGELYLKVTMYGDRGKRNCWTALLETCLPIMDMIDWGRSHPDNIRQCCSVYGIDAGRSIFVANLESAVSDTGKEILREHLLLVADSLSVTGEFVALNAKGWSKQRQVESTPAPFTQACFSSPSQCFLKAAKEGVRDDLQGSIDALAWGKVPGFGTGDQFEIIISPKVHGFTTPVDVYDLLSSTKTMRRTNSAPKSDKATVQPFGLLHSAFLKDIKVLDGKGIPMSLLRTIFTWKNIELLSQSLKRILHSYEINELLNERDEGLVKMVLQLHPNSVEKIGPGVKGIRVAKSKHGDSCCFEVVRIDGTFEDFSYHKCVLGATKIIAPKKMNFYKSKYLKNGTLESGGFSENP
Assay: co-IP

B1: recombinant RDR2 (RNA-DEPENDENT RNA POLYMERASE 2), wild type, with N-terminal V5 epitope and 6xHis tags (enzyme)
chain: MVSETTTNRSTVKISNVPQTIVADELLRFLELHLGEDTVFALEIPTTRDNWKPRDFARVQFTTLEVKSRAQLLSSQSKLLFKTHNLRLSEAYDDIIPRPVDPRKRLDDIVLTVGFPESDEKRFCALEKWDGVRCWILTEKRRVEFWVWESGDCYKIEVRFEDIIETLSCCVNGDASEIDAFLLKLKYGPKVFKRVTVHIATKFKSDRYRFCKEDFDFMWIRTTDFSGSKSIGTSTCFCLEVHNGSTMLDIFSGLPYYREDTLSLTYVDGKTFASAAQIVPLLNAAILGLEFPYEILFQLNALVHAQKISLFAASDMELIKILRGMSLETALVILKKLHQQSSICYDPVFFVKTQMQSVVKKMKHSPASAYKRLTEQNIMSCQRAYVTPSKIYLLGPELETANYVVKNFAEHVSDFMRVTFVEEDWSKLPANALSVNSKEGYFVKPSRTNIYNRVLSILGEGITVGPKRFEFLAFSASQLRGNSVWMFASNEKVKAEDIREWMGCFRKIRSISKCAARMGQLFSASRQTLIVRAQDVEQIPDIEVTTDGADYCFSDGIGKISLAFAKQVAQKCGLSHVPSAFQIRYGGYKGVIAVDRSSFRKLSLRDSMLKFDSNNRMLNVTRWTESMPCFLNREIICLLSTLGIEDAMFEAMQAVHLSMLGNMLEDRDAALNVLQKLSGENSKNLLVKMLLQGYAPSSEPYLSMMLRVHHESQLSELKSRCRILVPKGRILIGCMDEMGILEYGQVYVRVTLTKAELKSRDQSYFRKIDEETSVVIGKVVVTKNPCLHPGDIRVLDAIYEVHFEEKGYLDCIIFPQKGERPHPNECSGGDLDGDQFFVSWDEKIIPSEMDPPMDYAGSRPRLMDHDVTLEEIHKFFVDYMISDTLGVISTAHLVHADRDPEKARSQKCLELANLHSRAVDFAKTGAPAEMPYALKPREFPDFLERFEKPTYISESVFGKLYRAVKSSLAQRKPEAESEDTVAYDVTLEEAGFESFIETAKAHRDMYGEKLTSLMIYYGAANEEEILTGILKTKEMYLARDNRRYGDMKDRITLSVKDLHKEAMGWFEKSCEDEQQKKKLASAWYYVTYNPNHRDEKLTFLSFPWIVGDVLLDIKAENAQRQSVEEKTSGLVSI
B1: binds.
